Our source for the Kd values is article PMC2910053.

This series deals with Cy3B-SSB (W88C SSB labeled with Cy3B, one per monomer) W89C (UniProt P0AGE0). The experiment in a line: bulk fluorescence.

On to ssDNA (unspecified, bulk assay), for which the Kd (as a rule, a measure of binding affinity in units of concentration) was less than 2.5 nM.
